Measurements reported in publication PMC3592470 (Nucleic Acids Research, 2012).

T1: BcgI B subunit (UniProt Q07606 1-341)
T1 sequence (looked up): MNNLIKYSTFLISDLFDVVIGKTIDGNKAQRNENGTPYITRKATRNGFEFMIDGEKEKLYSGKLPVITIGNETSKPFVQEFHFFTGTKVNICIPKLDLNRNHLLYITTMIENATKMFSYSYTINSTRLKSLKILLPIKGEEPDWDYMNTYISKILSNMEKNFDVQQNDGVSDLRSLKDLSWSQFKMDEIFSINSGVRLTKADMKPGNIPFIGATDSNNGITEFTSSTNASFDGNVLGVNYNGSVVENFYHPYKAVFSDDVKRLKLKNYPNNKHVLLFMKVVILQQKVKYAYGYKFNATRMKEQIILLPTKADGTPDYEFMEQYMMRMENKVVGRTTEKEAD

B1: BcgI A subunit, wild type (as a subunit of WT BcgI) (enzyme, UniProt Q07605 1-637, looked up)
chain: MVNEKTSTDQLVRRFIEDLGVTYEEQGSSNIQIKQALRSASKSKSQSGVGKPEFIFFSGNHLIIVEDKLAIDKLEYKNNDGIIDTEFPFRRDYAVNGAVHYARHIIEKTNSYKEVIAIGIAGDGLHYQIHPYFVSETELKKLPEMKSLEDISPENIEEFYKVAVLGELPKEERELREVNKIAADMHEDLRNYGQLEGEKKATVVSAILLALEEPTFSLNQLIGSDRVGGTDGEIIFNAVRVYLENAGIVPYAKVGEMLDQFIFIQRDVTLNTVNSNLEMTPLKYFATTLEAEIMDKIKSNTDFDILGNFYGEFVKYGGNDGNPLGIVLTPRHITSLMAELIGINKSDFVLDPACGTGAFLISAMNRMLGQAENDDERRDIKQNRLYGIEIQQKLFTIATTNMILRGDGKSNLIRDNCLTFDNTIMNGYGINKILMNPPYSQAKNDQTQHLSELSFIQQALEMLVVGGKLCAIVPQSTMVGKNRHDKARKKQILKQHTLETVITLNKDTFHGVGVNPCIVIFKAGIKHPENKRVSFVNFEDDGHVVRKHVGLVGDGTEKGKREHLLAVLAGDEDDGTDLIVKTAIKDTDEWLHSFYYFNDGIPSEDDFYKTVANYLTFQFDMTANGKGYLFEGVEENE
B2: BcgI A subunit, E53A mutant (as a subunit of the BcgI E53A protein) (enzyme, UniProt Q07605 1-637, looked up)
chain: MVNEKTSTDQLVRRFIEDLGVTYEEQGSSNIQIKQALRSASKSKSQSGVGKPAFIFFSGNHLIIVEDKLAIDKLEYKNNDGIIDTEFPFRRDYAVNGAVHYARHIIEKTNSYKEVIAIGIAGDGLHYQIHPYFVSETELKKLPEMKSLEDISPENIEEFYKVAVLGELPKEERELREVNKIAADMHEDLRNYGQLEGEKKATVVSAILLALEEPTFSLNQLIGSDRVGGTDGEIIFNAVRVYLENAGIVPYAKVGEMLDQFIFIQRDVTLNTVNSNLEMTPLKYFATTLEAEIMDKIKSNTDFDILGNFYGEFVKYGGNDGNPLGIVLTPRHITSLMAELIGINKSDFVLDPACGTGAFLISAMNRMLGQAENDDERRDIKQNRLYGIEIQQKLFTIATTNMILRGDGKSNLIRDNCLTFDNTIMNGYGINKILMNPPYSQAKNDQTQHLSELSFIQQALEMLVVGGKLCAIVPQSTMVGKNRHDKARKKQILKQHTLETVITLNKDTFHGVGVNPCIVIFKAGIKHPENKRVSFVNFEDDGHVVRKHVGLVGDGTEKGKREHLLAVLAGDEDDGTDLIVKTAIKDTDEWLHSFYYFNDGIPSEDDFYKTVANYLTFQFDMTANGKGYLFEGVEENE

Assays:
BcgI B subunit [1] = biological target: T1, BcgI B subunit; experiment: AUC
BcgI B subunit [2] = biological target: T1, BcgI B subunit; experiment: native MS

Row | Binder | stoichiometry N (BcgI B subunit [1]) [A per B] | stoichiometry N (BcgI B subunit [2]) [A per B]
1 | B1 | 2 | –
2 | B2 | – | 2
